How the values were obtained:
Conditions in all cases: remark: other sources report otherwise
[1] = biological target: hemagglutinin (HA) of influenza A/Japan/305/57 H2N2 (Influenza A virus A/Japan/305/1957 (H2N2)), P03451; test: ELISA, inactivated whole virions coated; transfection supernatant set 5
[2] = biological target: recombinant soluble homotrimeric HA of A/northern shoveler/California/HKWF115/07 (Influenza A virus A/northern shoveler/California/HKWF115/2007); test: microarray, BCC supernatant IgG, trimeric HA
[3] = biological target: recombinant soluble homotrimeric HA of A/chicken/Vietnam/NCVD-016/08 (H5N1) (Influenza A virus A/chicken/Vietnam/NCVD-016/08 (H5N1)); test: microarray, BCC supernatant IgG, trimeric HA
[4] = biological target: T1, recombinant homotrimeric HA, A/Japan/305/57 H2N2 (Influenza A virus A/Japan/305/57 (H2N2)); test: trimeric HA microarray, transfection set 5
[5] = biological target: T2, recombinant homotrimeric HA, A/South Carolina/1/18 H1N1 (Influenza A virus A/South Carolina/1/18 (H1N1)); test: trimeric HA microarray, transfection set 5
[6] = biological target: T3, recombinant homotrimeric HA, A/Wisconsin/67/05 H3N2 (Influenza A virus A/Wisconsin/67/05 (H3N2)); test: trimeric HA microarray, transfection set 5
[7] = biological target: T4, recombinant homotrimeric HA, A/California/4/09 H1N1 (Influenza A virus A/California/4/09 (H1N1)); test: trimeric HA microarray, transfection set 5
[8] = biological target: T5, recombinant homotrimeric HA, A/Solomon Islands/3/06 H1N1 (Influenza A virus A/Solomon Islands/3/06 (H1N1)); test: trimeric HA microarray, transfection set 5
[9] = biological target: T6, recombinant homotrimeric HA, A/Vietnam/1203/04 H5N1 (Influenza A virus A/Vietnam/1203/04 (H5N1)); test: trimeric HA microarray, transfection set 5
[10] = biological target: recombinant soluble homotrimeric HA of A/Netherlands/219/03 (H7N7) (Influenza A virus A/Netherlands/219/03 (H7N7)); test: microarray, BCC supernatant IgG, trimeric HA
[11] = biological target: T7, recombinant homotrimeric HA, A/Indonesia/5/05 H5N1 (Influenza A virus A/Indonesia/5/05 (H5N1)); test: trimeric HA microarray, transfection set 5
[12] = biological target: recombinant soluble homotrimeric HA of A/Japan/305/57 (H2N2) (Influenza A virus A/Japan/305/57 (H2N2)); test: microarray, BCC supernatant IgG, trimeric HA
[13] = biological target: recombinant soluble homotrimeric HA of A/swine/Ontario/01911-2/99 (H4N6) (Influenza A virus A/swine/Ontario/01911-2/99 (H4N6)); test: microarray, BCC supernatant IgG, trimeric HA
[14] = biological target: recombinant soluble homotrimeric HA of A/Indonesia/5/05 (H5N1) (Influenza A virus A/Indonesia/5/05 (H5N1)); test: microarray, BCC supernatant IgG, trimeric HA
[15] = biological target: recombinant soluble homotrimeric HA of A/Vietnam/1203/04 (H5N1) (Influenza A virus A/Vietnam/1203/04 (H5N1)); test: microarray, BCC supernatant IgG, trimeric HA
[16] = biological target: recombinant soluble homotrimeric HA of A/duck/Yangzhou/02/05 (H8N4) (Influenza A virus A/duck/Yangzhou/02/2005 (H8N4)); test: microarray, BCC supernatant IgG, trimeric HA
[17] = biological target: recombinant soluble homotrimeric HA of A/Anhui/1/05 (H5N1) (Influenza A virus A/Anhui/1/05 (H5N1)); test: microarray, BCC supernatant IgG, trimeric HA
[18] = biological target: recombinant soluble homotrimeric HA of A/Hong Kong/2108/03 (H9N2) (Influenza A virus A/Hong Kong/2108/03 (H9N2)); test: microarray, BCC supernatant IgG, trimeric HA
[19] = biological target: recombinant soluble homotrimeric HA of A/Egypt/3300-NAMRU3/08 (H5N1) (Influenza A virus A/Egypt/3300-NAMRU3/08 (H5N1)); test: microarray, BCC supernatant IgG, trimeric HA
[20] = biological target: recombinant soluble homotrimeric HA of A/California/4/09 (H1N1) (Influenza A virus A/California/4/09 (H1N1)); test: microarray, BCC supernatant IgG, trimeric HA
[21] = biological target: recombinant soluble homotrimeric HA of A/Solomon Islands/3/06 (H1N1) (Influenza A virus A/Solomon Islands/3/06 (H1N1)); test: microarray, BCC supernatant IgG, trimeric HA
[22] = biological target: recombinant soluble homotrimeric HA of A/Wisconsin/67/05 (H3N2) (Influenza A virus A/Wisconsin/67/05 (H3N2)); test: microarray, BCC supernatant IgG, trimeric HA
[23] = biological target: recombinant homotrimeric HA, A/common magpie/Hong Kong/5052/07 H5N1 (Influenza A virus A/common magpie/Hong Kong/5052/07 (H5N1)); test: trimeric HA microarray, transfection set 3
[24] = biological target: recombinant homotrimeric HA, A/Hong Kong/2108/03 H9N2 (Influenza A virus A/Hong Kong/2108/03 (H9N2)); test: trimeric HA microarray, transfection set 3
[25] = biological target: T1, recombinant homotrimeric HA, …; test: trimeric HA microarray, transfection set 3
[26] = biological target: T2, recombinant homotrimeric HA, A/South …; test: trimeric HA microarray, transfection set 3
[27] = biological target: T3, recombinant homotrimeric HA, …; test: trimeric HA microarray, transfection set 3
[28] = biological target: T4, recombinant homotrimeric HA, …; test: trimeric HA microarray, transfection set 3
[29] = biological target: T7, recombinant homotrimeric HA, …; test: trimeric HA microarray, transfection set 3
[30] = biological target: recombinant homotrimeric HA, A/Egypt/3300-NAMRU3/08 H5N1 (Influenza A virus A/Egypt/3300-NAMRU3/08 (H5N1)); test: trimeric HA microarray, transfection set 3
[31] = biological target: T5, recombinant homotrimeric HA, A/Solomon …; test: trimeric HA microarray, transfection set 3
[32] = biological target: recombinant homotrimeric HA, A/Hong Kong/1073/99 H9N2 (Influenza A virus A/Hong Kong/1073/99 (H9N2)); test: trimeric HA microarray, transfection set 3
[33] = biological target: T6, recombinant homotrimeric HA, …; test: trimeric HA microarray, transfection set 3
[34] = biological target: recombinant homotrimeric HA, A/swine/Ontario/01911-2/99 H4N6 (Influenza A virus A/swine/Ontario/01911-2/99 (H4N6)); test: trimeric HA microarray, transfection set 3
[35] = biological target: recombinant homotrimeric HA, A/northern shoveler/California/HKWF115/07 (Influenza A virus A/northern shoveler/California/HKWF115/2007 (H6N1)); test: trimeric HA microarray, transfection set 3
[36] = biological target: recombinant homotrimeric HA, A/chicken/Vietnam/NCVD-016/08 H5N1 (Influenza A virus A/chicken/Vietnam/NCVD-016/08 (H5N1)); test: trimeric HA microarray, transfection set 3
[37] = biological target: recombinant homotrimeric HA, A/duck/Yangzhou/02/05 H8N4 (Influenza A virus A/duck/Yangzhou/02/2005 (H8N4)); test: trimeric HA microarray, transfection set 3

B1: TCN-551 (5243_D01) (antibody, V domains shown)
VH: EVQLVQSGSEVKKPGESLKISCKGSGYSFSNYWIGWVRHMPGKGLEWMGIIYPGDSDTRYSPSFQGQVTMSADKSSSTVYLQWSSLKASDTAIYYCARRGGHSFGYGSGGDTHSEFDSWGQGTLVTVSS
VL: QSVLTQSPSVSAAPGQKVTISCSGSDSNIGDYFVCWYQHLPGKPPQLLIYENNKRPSGIPDRFSGSKSGTSATLGITGIQTGDEADYYCATWDGSLSAWVFGGGTKLTVL
What does the source list for B1?
OD450 [1]: 0.1 OD450; Trimeric HA Binding: RLU [2]: 52500 RLU; Trimeric HA Binding: RLU [3]: 42300 RLU; Trimeric HA Binding RLU [4]: 25200 RLU; Trimeric HA Binding RLU [5]: 4340 RLU; Trimeric HA Binding RLU [6]: 936 RLU; Trimeric HA Binding RLU [7]: 46100 RLU; Trimeric HA Binding RLU [8]: 43500 RLU; Trimeric HA Binding RLU [9]: 41900 RLU

B2: TCN-538 (3206_O17) (antibody, V domains shown)
VH: QITLKESGPTLVKPTQTLTLTCVFSGFSLSITGVRVGWIRQPPGKALEWLALISWDDEKHYSPSLQSRLTITKDTSKNQVVLTMTNLDPVDTATYYCARSTDRGHVLRYFGWMLPGDAFDVWGQGTMVTVSS
VL: DIVMTQSPDFLPVSLGERATINCKSSQRVLYSSNNKNYLAWYQLKPGQPPKLIIYWASTRESGVPDRFSGSGSGTEFTLTISSLQAEDVAVYYCQQYYSRPYTFGQGTKLEIK
Which Trimeric HA Binding: RLU [10] does the source give for B2 here?
The Trimeric HA Binding: RLU was 6530 RLU.

And the Trimeric HA Binding RLU [4]?
The Trimeric HA Binding RLU was 6620 RLU.

What about the Trimeric HA Binding RLU [5] of the same binder?
The Trimeric HA Binding RLU was 8430 RLU.

What about the Trimeric HA Binding RLU [6] of the same binder?
Its Trimeric HA Binding RLU is 2070 RLU.

What about the Trimeric HA Binding RLU [7] of the same binder?
Its Trimeric HA Binding RLU is 16000 RLU.

And the Trimeric HA Binding RLU [11]?
The Trimeric HA Binding RLU was 13700 RLU.

What about the Trimeric HA Binding RLU [8] of the same binder?
Its Trimeric HA Binding RLU is 1960 RLU.

B3: TCN-533 (5256_A17) (antibody, V domains shown)
VH: QVQLVQSGADVKKPGSSVTVSCKASGGSFSNYGINWVRQAPGQGLEWMGGIIPLINAPNYAPKFQGRVTITADMFSNIVSLQLTSLRTDDTAVYYCARRKMTTAIDYWGQGTLVTVSS
VL: QPVLSQPPSASASLGASVTLTCTLSSGFDNYQVAWYQQRPGKGPRFVMRVGNGGNVASKGDGIPDRFSVSGSGLNRYLTIKNIQEDDESDYYCGADHGSGNNFVSPYVFGGGTKLTVL
Which Trimeric HA Binding: RLU [12] does the source give for B3 here?
The Trimeric HA Binding: RLU was 10800 RLU.

What about the Trimeric HA Binding: RLU [13] of the same binder?
The Trimeric HA Binding: RLU was 1580 RLU.

What about the Trimeric HA Binding: RLU [14] of the same binder?
Its Trimeric HA Binding: RLU is 44100 RLU.

What about the Trimeric HA Binding: RLU [15] of the same binder?
Its Trimeric HA Binding: RLU is 5680 RLU.

And the Trimeric HA Binding: RLU [16]?
Its Trimeric HA Binding: RLU is 24700 RLU.

And the Trimeric HA Binding: RLU [17]?
Its Trimeric HA Binding: RLU is 8060 RLU.

What about the Trimeric HA Binding: RLU [18] of the same binder?
The Trimeric HA Binding: RLU was 172 RLU.

What about the Trimeric HA Binding: RLU [19] of the same binder?
Its Trimeric HA Binding: RLU is 34300 RLU.

What about the Trimeric HA Binding: RLU [2] of the same binder?
The Trimeric HA Binding: RLU was 41400 RLU.

What about the Trimeric HA Binding: RLU [20] of the same binder?
The Trimeric HA Binding: RLU was 29300 RLU.

And the Trimeric HA Binding: RLU [21]?
Its Trimeric HA Binding: RLU is 39200 RLU.

What about the Trimeric HA Binding: RLU [3] of the same binder?
The Trimeric HA Binding: RLU was 47700 RLU.

What about the Trimeric HA Binding: RLU [22] of the same binder?
Its Trimeric HA Binding: RLU is 13800 RLU.

What about the Trimeric HA Binding RLU [23] of the same binder?
Its Trimeric HA Binding RLU is 25200 RLU.

And the Trimeric HA Binding RLU [24]?
The Trimeric HA Binding RLU was 33 RLU.

And the Trimeric HA Binding RLU [25]?
The Trimeric HA Binding RLU was 18600 RLU.

What about the Trimeric HA Binding RLU [26] of the same binder?
The Trimeric HA Binding RLU was 16400 RLU.

What about the Trimeric HA Binding RLU [27] of the same binder?
Its Trimeric HA Binding RLU is 16100 RLU.

What about the Trimeric HA Binding RLU [28] of the same binder?
Its Trimeric HA Binding RLU is 6880 RLU.

What about the Trimeric HA Binding RLU [29] of the same binder?
Its Trimeric HA Binding RLU is 28300 RLU.

And the Trimeric HA Binding RLU [30]?
Its Trimeric HA Binding RLU is 18600 RLU.

What about the Trimeric HA Binding RLU [31] of the same binder?
The Trimeric HA Binding RLU was 15500 RLU.

And the Trimeric HA Binding RLU [32]?
Its Trimeric HA Binding RLU is 23800 RLU.

And the Trimeric HA Binding RLU [33]?
The Trimeric HA Binding RLU was 11700 RLU.

And the Trimeric HA Binding RLU [34]?
The Trimeric HA Binding RLU was 180 RLU.

And the Trimeric HA Binding RLU [35]?
The Trimeric HA Binding RLU was 7810 RLU.

What about the Trimeric HA Binding RLU [36] of the same binder?
The Trimeric HA Binding RLU was 24600 RLU.

What about the Trimeric HA Binding RLU [37] of the same binder?
The Trimeric HA Binding RLU was 711 RLU.

From patent US20120207760A1
